Measured values from PMC10570038.
“And” between values parts separate entries of the source, which are not always exact repeats. Equal values may be shown once.

Legend:
[1] = biological target: RBPMS-A FL (rat) (UniProt A0A8I6G705); experiment: EMSA; conditions: no binding in 0-6 uM; EMSA: 10 nM RNA, 25 mM HEPES pH 7.9, 100 mM KCl, 2 mM MgCl2, 0.625 mM DTT, 0.1 mg/ml BSA, 5% glycerol, 30 C 1 h, then 5 mg/ml heparin 10 min; 5% native PAGE in …
[2] = biological target: recombinant untagged rat RBPMS-A ΔC20 (rat); experiment: AUC; sedimentation velocity, 40 000 rpm, 20°C, 20 mM HEPES, 1 mM TCEP, pH 7.9, 500 mM KCl; FL and ΔC20 at equal molar concentration (0.46 and 0.57 mg/ml); continuous c(s) model
[3] = biological target: recombinant untagged rat RBPMS-A ΔC20 (rat); experiment: AUC; sedimentation velocity, 40 000 rpm, 20°C, 20 mM HEPES, 1 mM TCEP, pH 7.9, 60 mM KCl; FL 0.7, 0.48, 0.24, 0.11 mg/ml; ΔC20 0.5 or 0.1 mg/ml; continuous c(s) model
[4] = biological target: recombinant untagged rat RBPMS-A ΔC20 (rat); experiment: cross-linking; glycerol gradients supplemented with a glutaraldehyde cross-linker (GraFix)
[5] = biological target: recombinant untagged rat RBPMS-A ΔC20 (rat); experiment: SEC; size exclusion chromatography of purified untagged recombinant protein; compared with size markers (443 kDa marker, void volume)

Row | Substance | Kd [1] [µM] | stoichiometry N [2] | stoichiometry N [3] | stoichiometry N [4] | percent eluting as dimer [5] [%] | stoichiometry N [5]
1 | GUCUACGCACCCUCAACCCGCACCUUGCGGGAUG [(CAC)2] | > 6 |  |  |  |  | 
2 | recombinant untagged rat RBPMS-A ΔC20 (domain or fragment) |  | 2 | 2 and 3 | 3 and 4 | 96 | 2
